In paper PMC5309861, “Mechanistic insight into the substrate specificity of 1,2-β-oligoglucan phosphorylase from Lachnoclostridium phytofermentans” (Scientific Reports, 2017):

Substrate: O=P(O)(O)O[C@H]1O[C@H](CO)[C@@H](O)[C@H](O)[C@H]1O
Test: phosphate release (molybdate colorimetry), Michaelis-Menten fit
Format: biochemical, Lachnoclostridium phytofermentans
Settings: synthetic reaction, donor, pH 7.0, 30 °C, acceptor not stated
From the text: phosphate release (molybdate colorimetry), Michaelis-Menten fit on LpSOGP

B1: LpSOGP (Lachnoclostridium phytofermentans ISDg) (protein)
chain: MILKTLSAPIILENSNSTFTFLPGGDNFEWIHESIMINAFQGNTLDGSTNNLYLRIYKDNSLAFYPLIGMNSKSTIKSGTSTLIFEGTAEDISYTVTFRLTPYGIWFWDISLSGNCNKADIIYSQDIGVGTKGSVNSNELYLAQYLGHSIFQGDYGYVICSRQNMAQGDLFPYLQQGSLGIRSIAYSTDGTQFFGLSYKKTNIPEALYGDLPSKNKQYELAHTALQTEAFSLSGTKQFSFYGICKTNHPEVIREIEYIQELEKAYAYHESGEILPVNVPTLQNIGAPYASSRWDAKQVEHYFPKRLLEEKEEEALLSFFTPEKSHVVLQDKELTTERPHGHILMTNFDVTKVPQGVVSSTNYMYGAFNCQFVVGNTTYNKLLSNHRGLLNIQKDSGQRIFIKIGDCYRQLTLPAAYEMNVAGSTWYYQLDEDVLIITSFAMYNRPEIVLKVQSLGHKKYDFIVTHQLTVGPNEYENEIKLTREGNILQLSPTDPVVTNHFYPELSFRMRIPEDCTLSDDSIFFHNNTTINPSLLSIEILQKSSFDIVMQGFDTGNVIPFLDQYDYKEQLEAYRIYYDQLVCNFKLSAPDKIPLSAEKLNAIIHWYAHDALIHFASPHGLEQSGGAAWGTRDVCQGPIEFFLTTGHFDLVRHILITLYSHQIEGGFEWPQWFMFDHYPIHQEDCHGDVVFWPLKAISDYIQATGDTSILNELVDYRTAKDALPTNQPETILIHIKRAVTTIKNRYLSGTALISYAGGDWDDTLQPANSELKENLVSAWTQALAEQTLELLCSAIKGIDHDFSKELSHMANDIRTSFYQYLIKDGVIAGFLYRESEEHMKYMLHPDDTESSIHYRLLPLTRSIIAQLADFKLATRNLEIIDEHLACPDGVRLMDHPASYSGGISKIFLRAEQAANVGREISLQYVHAHIRYIEALATMGLSKKAWDALMRINPILLTDYVPNALTRQSNVYFSSSEGCFDDRYEYAKNFDKLRTGDINVKGGWRLYSSGPGIYIRRIIADLLGIRFGHNVIHIDPVVTKELDGVTLQFTCFGKTVFFTYHVDDTMDKHICVKSNNNILPGDNLNNIYRDGGIQIAKDVFLSAAMSDNNFHIYVKN
notes: full length with C-terminal His6 tag (pET28a, kept); E. coli BL21(DE3); theoretical mass 169640 Da as printed; monomer; structure residues 1-1113
Km: 2.6 ± 0.3 mM | kcat: 28 ± 1 s⁻¹ | kcat/Km: 11000 ± 1000 M⁻¹ s⁻¹
